Assays:
[1] = molecular target: the molecule itself; assay: SEC
[2] = molecular target: the molecule itself; assay: crystal structure

B1: short-chain dehydrogenase/reductase-family oxidoreductase from Brucella ovis ATCC 25840 (enzyme)
chain: MELLKEKLVLVTGAGRGLGAAISSGAAEQGARVILVDIDGTAAKAQADALTAKGFVAEGHALDVTDRDAVAALADDILSRFGGLDVLVNNAGVAGRAAFDQPEAVEVWDRVIGVNLEGAFNVSHALVPALKAAKGNVVHLCSVAGFVSGGSTAGYVVSKGAIRSLTQVMARDLAPHGIRVNAVAPGIMMSEMAVAQLNRPGGTDWFMNRVMMKRIGETSEVVDPVVFLASPMASYITGTILPVDGGFLAA
notes: also called BoSDR; B. ovis SDR; not shown: His6, N-terminal, kept
stoichiometry N [1]: ~2 | stoichiometry N [2]: 4

From paper PMC12810213, “Crystal structure of a short-chain dehydrogenase from Brucella ovis with apo and coenzyme NAD^+-bound protomer chains” (Acta Crystallographica Section F: Structural Biology …, 2025)
